Measurements taken from patent US20210115426A1 (BOARD OF REGENTS OF THE UNIVERSITY OF OKLAHOMA, published 2021).
Non-standard residues stand in square brackets, D forms with d. No end group written: not given here. AEEA = NCCOCCOCC(=O)O

How the values were obtained:
amyloid β1-42 (Aβ1-42) [1] = target: T1, amyloid β1-42 (Aβ1-42) (UniProt P05067 672-713); assay: ELISA, peptide coated at 5 µg/ml, 150 nM Aβ1-42 added, anti-Aβ antibody, A492 (FIG. 3)
T1 construct: domain: Aβ1-42; Added in solution at 150 nM in the ELISA; Aβ1-42 is a fragment of it; also called amyloid beta; the 42-amino acid form of Aβ
T1 sequence (P05067 672-713 limits assumed): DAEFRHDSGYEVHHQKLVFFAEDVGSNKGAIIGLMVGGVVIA
Procedure: (§1) BSA was from Sigma Aldrich. […] Plate coating was done at room temperature for 2 hours with shaking and then at 4° C. overnight. Plates were washed three times in PBST (PBS+0.05% tween), then blocked with 3% BSA in PBST for 1 hour at room temperature with shaking. […] Plates were then washed 4 times with PBST and monoclonal mouse anti-amyloid precursor protein/amyloid beta antibody, purchased from Cell Signaling Technology was added at a 1:500 dilution in 1% BSA in PBST and incubated for 1 hour at room temperature with shaking. Plates were washed 4× in PBST and donkey anti mouse HRP-conjugated secondary antibody from Jackson ImmunoResearch Laboratories was added at 1:10,000 in PBST and incubated 1 hour at room temperature with shaking, then washed 4 times in PBST. […] Sulfuric acid (5N) was added to each well to stop the reaction, and the absorbance at 492 nm was read on a Biotek Synergy II plate reader.

amyloid β1-42 (Aβ1-42) [2] = target: T1, amyloid β1-42 (Aβ1-42); assay: cell-based or functional assay
amyloid β1-42 (Aβ1-42) [3] = target: T1, amyloid β1-42 (Aβ1-42); assay: ELISA, peptide coated at 5 µg/ml, 150 nM Aβ1-42 added, anti-Aβ antibody, A492 (FIG. 2)
Procedure: as §1

amyloid β1-42 (Aβ1-42) [4] = target: T1, amyloid β1-42 (Aβ1-42); assay: ELISA, peptide coated, Aβ1-42 added, anti-Aβ antibody, absorbance at 492 nm (FIG. 21)
Procedure: as §1

amyloid β1-42 (Aβ1-42) [5] = target: T1, amyloid β1-42 (Aβ1-42); assay: ELISA, peptide coated, Aβ1-42 added (FIG. 21)
Procedure: as §1

[AEEA][AEEA]RRRRNQGRHFCGGALIHARFVMTAASCFQR (cysteine pairing not given here, also called 20-44 CC 5RMP) [5RMP-modified CAP37-derived peptide 20-44 CC]
binding result (amyloid β1-42 (Aβ1-42) [1]): binds

B1: cationic antimicrobial protein of 37 kDa (CAP37), full-length (enzyme, human, UniProt P20160 27-248, looked up)
chain: IVGGRKARPRQFPFLASIQNQGRHFCGGALIHARFVMTAASCFQSQNPGVSTVVLGAYDLRRRERQSRQTFSISSMSENGYDPQQNLNDLMLLQLDREANLTSSVTILPLPLQNATVEAGTRCQVAGWGSQRSGGRLSRFPRFVNVTVTPEDQCRPNNVCTGVLTRRGGICNGDGGTPLVCEGLAHGVASFSLGPCGRGPDFFTRVALFRDWIDGVLNNPGP
IC50 of inhibition of Aβ1-42 fibrillation (Thioflavin T fluorescence) (amyloid β1-42 (Aβ1-42) [2]): 876 nM | fold increase of the fibrillation IC50 in the presence of PMSF (amyloid β1-42 (Aβ1-42) [2]): 3.5 fold | molar ratio CAP37/Aβ1-42 at the IC50 of fibrillation (amyloid β1-42 (Aβ1-42) [2]): 0.091 molar ratio

B2: cathepsin G (CG), full-length (enzyme, human, UniProt P08311 21-244, looked up)
chain: IIGGRESRPHSRPYMAYLQIQSPAGQSRCGGFLVREDFVLTAAHCWGSNINVTLGAHNIQRRENTQQHITARRAIRHPQYNQRTIQNDIMLLQLSRRVRRNRNVNPVALPRAQEGLRPGTLCTVAGWGRVSMRRGTDTLREVQLRVQRDRQCLRIFGSYDPRRQICVGDRRERKAAFKGDSGGPLLCNNVAHGIVSYGKSSGVPPEVFTRVSSFLPWIRTTMRS
IC50 of inhibition of Aβ1-42 fibrillation (Thioflavin T fluorescence) (amyloid β1-42 (Aβ1-42) [2]): 3.8 nM | fold increase of the fibrillation IC50 in the presence of chymostatin (amyloid β1-42 (Aβ1-42) [2]): 17 fold | molar ratio CG/Aβ1-42 at the IC50 of fibrillation (amyloid β1-42 (Aβ1-42) [2]): 0.00038 molar ratio

GTRCQVAGWGSQRSGGRLSRFPRFVNV [CAP37-derived peptide 120-146 QR (wild-type)]
binding result (amyloid β1-42 (Aβ1-42) [3]): binds

GTRCQVAGWGSWRSGGRLSRFPRFVNV [CAP37-derived peptide 120-146 WR (mutant)]
IC50 of inhibition of Aβ1-42 fibrillation (Thioflavin T fluorescence) (amyloid β1-42 (Aβ1-42) [2]): ~1000 nM | molar ratio peptide/Aβ1-42 at the IC50 of fibrillation (amyloid β1-42 (Aβ1-42) [2]): ~0.1 molar ratio

[AEEA][AEEA]RRRRGTRCQVAGWGSQRSGGRLSRFPRFVNVR [5RMP-modified CAP37-derived peptide 120-146 QR]
binding result (amyloid β1-42 (Aβ1-42) [1]): binds

[AEEA][AEEA]RRRRGTRCQVAGWGSWRSGGRLSRFPRFVNVR [CAP37-derived peptide 120-146 WR 5RMP]
IC50 of inhibition of Aβ1-42 fibrillation (Thioflavin T fluorescence) (amyloid β1-42 (Aβ1-42) [2]): ~1000 nM | molar ratio peptide/Aβ1-42 at the IC50 of fibrillation (amyloid β1-42 (Aβ1-42) [2]): ~0.1 molar ratio

GTLCTVAGWGSMRRGTDTLREVQL [CG-derived mutant peptide CG119-144 ΔR129V130]
binding result (amyloid β1-42 (Aβ1-42) [4]): no binding

NQGRHFCGGALIHARFVMTAASCFQ (also called CAP3720-44) [CAP37-derived peptide 20-44 CC (wild-type)]
binding result (amyloid β1-42 (Aβ1-42) [3]): binds

GTLCTVAGWGRVSMRRGTDTLRPRVQL [CG-derived mutant peptide CG119-144 E141PR]
binding result (amyloid β1-42 (Aβ1-42) [5]): binds

GTLCTVAGWGRVSMRRGTDTLREVQL [CG-derived peptide CG119-144 (wild-type)]
binding result (amyloid β1-42 (Aβ1-42) [5]): binds

GTLCTVAGWGRVSMRRGTRTLREVQL [CG-derived mutant peptide CG119-144 D137R]
IC50 of inhibition of Aβ1-42 fibrillation (Thioflavin T fluorescence) (amyloid β1-42 (Aβ1-42) [2]): 3100 nM | molar ratio peptide/Aβ1-42 at the IC50 of fibrillation (amyloid β1-42 (Aβ1-42) [2]): 0.33 molar ratio
